According to PMC6114919:

Legend:
p55 (Homo sapiens) = p55 (Homo sapiens) (UniProt Q9UHN1); conditions: cited from earlier work
[1] = target: Exonuclease-deficient (Exo-) p140 catalytic subunit of DNA polymerase gamma (POLG) (human) (UniProt P54098); assay: DNA polymerase activity titration (formation of active holoenzyme); holoenzymes preassembled on ice in EDB (50 mM Tris-HCl pH 7.5, 10% glycerol, 1 mM EDTA, 1 mM 2-ME, 100 mM KCl, 0.005% NP-40) with constant 2.5 nM p140 and 0-25 nM p55; activity on poly(rA)•oligo(dT)12-18 at 220 mM NaCl, 37°C, 9 min; apparent Kd from activity against the concentration of p55 dimer
R182W p55 (human) = assay: EMSA; conditions: EMSA in triplicate as previously described (ref 22); buffer, salt, pH and temperature not given in the material
[2] = test system: WT p55 (Pol gamma accessory subunit) (human); assay: EMSA; conditions: EMSA in triplicate as previously described (ref 22); buffer, salt, pH and temperature not given in the material

Chain of p55 (Q9UHN1 2-485): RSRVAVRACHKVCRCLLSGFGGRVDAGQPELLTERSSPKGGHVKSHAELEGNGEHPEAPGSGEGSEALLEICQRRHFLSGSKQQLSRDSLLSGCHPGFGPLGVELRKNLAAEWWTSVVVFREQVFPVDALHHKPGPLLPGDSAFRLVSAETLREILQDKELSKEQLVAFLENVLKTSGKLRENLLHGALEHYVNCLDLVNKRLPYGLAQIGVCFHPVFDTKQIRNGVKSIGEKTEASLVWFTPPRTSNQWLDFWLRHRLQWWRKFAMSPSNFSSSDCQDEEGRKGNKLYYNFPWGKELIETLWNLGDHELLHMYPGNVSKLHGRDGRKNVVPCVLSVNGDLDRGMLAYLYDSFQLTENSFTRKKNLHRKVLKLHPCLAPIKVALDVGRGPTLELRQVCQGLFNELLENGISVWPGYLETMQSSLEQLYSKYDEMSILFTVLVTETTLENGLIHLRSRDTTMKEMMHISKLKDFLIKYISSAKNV

p55 (from UniProt Q9UHN1)
Kd (p55 (Homo sapiens)): < 0.1 nM

Wild-type p55 accessory subunit of DNA polymerase gamma (POLG2) (natural protein)
Kd [1]: 0.35 nM

R182W p55 accessory subunit of DNA polymerase gamma (POLG2 Chr17: 62492543G>A) (natural protein)
Kd [1]: 0.11 nM

47-nucleotide double-stranded DNA oligomer
Kd (R182W p55 (human)): 84.2 nM
Kd [2]: 89.6 nM
